The nature of data set [1]: Autoactivation of MASP fragments followed on reducing SDS-PAGE. Type of data set: biochemical. To be noted: after renaturation / purification. The text has this:
The catalytic region of MASP-1 and MASP-2, consisting of the two complement control protein modules and the serine protease domain (CCP1-CCP2-SP) (FIG. 3.) was expressed in E. coli BL-21 cells using the pET-17b expression vector. In the case of MASP-2, truncated fragments of the catalytic region (the serine protease domain with one CCP module and the serine protease domain alone) (FIG. 3) were also expressed in the same expression system. Since the recombinant proteins accumulated as inclusion bodies inside the bacterial cells, renaturation procedures were needed to restore the native, folded structure (see Materials and Methods). The renatured recombinant proteins were purified by ion exchange chromatography on Q-Sepharose Fast Flow and Mono-S columns. The renaturation and the purification procedures were followed by SDS-PAGE and the purified proteins were subjected to N-terminal sequencing. Before renaturation the inclusion body proteins yielded single bands on the reducing SDS-PAGE corresponding to the zymogen form of the enzymes. […] The MASP-1 CCP1-CCP2-SP fragment co-purified with a minor contaminant, which migrated on SDS-PAGE as a band of 24 kDa under reducing and at 39 kDa under non-reducing conditions. […] The cleavage occurred at the Arg^504-Asp^505 bond removing the histidine from the catalytic triad and thus causing the loss of its enzymatic activity. […]

For data set [2], the target named is T1, C2 (Homo sapiens, UniProt P06681).
T1 construct: from tissue
T1 sequence (P06681 21-752): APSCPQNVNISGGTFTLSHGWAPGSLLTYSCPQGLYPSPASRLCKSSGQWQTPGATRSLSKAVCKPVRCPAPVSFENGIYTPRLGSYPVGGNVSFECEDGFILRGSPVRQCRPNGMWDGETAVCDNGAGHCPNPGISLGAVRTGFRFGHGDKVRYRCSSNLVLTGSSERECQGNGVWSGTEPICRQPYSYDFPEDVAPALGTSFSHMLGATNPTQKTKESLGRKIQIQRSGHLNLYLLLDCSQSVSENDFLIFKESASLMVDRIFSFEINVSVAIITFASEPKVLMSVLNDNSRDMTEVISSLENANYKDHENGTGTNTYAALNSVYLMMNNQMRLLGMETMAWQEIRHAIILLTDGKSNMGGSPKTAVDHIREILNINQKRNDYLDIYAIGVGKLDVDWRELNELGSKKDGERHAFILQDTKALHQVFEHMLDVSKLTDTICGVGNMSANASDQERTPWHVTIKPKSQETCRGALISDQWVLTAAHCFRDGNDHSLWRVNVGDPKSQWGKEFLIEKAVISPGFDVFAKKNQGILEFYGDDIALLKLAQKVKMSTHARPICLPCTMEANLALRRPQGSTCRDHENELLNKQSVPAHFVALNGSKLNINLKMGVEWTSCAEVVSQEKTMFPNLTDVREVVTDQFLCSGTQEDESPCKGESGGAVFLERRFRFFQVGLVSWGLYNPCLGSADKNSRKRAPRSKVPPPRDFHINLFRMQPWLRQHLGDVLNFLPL
Description: C2 cleavage by MASP fragments. Type of data set: biochemical. The note with it: 37° C., pH 7.4; averages of 2 to 4 experiments, standard errors. Here is the method:
C2, C3, C3(NH3), C4 cleavage—Serial dilutions of MASP-1 and MASP-2 fragments ranging between concentrations of 1 μM and 10 pM were incubated at 37° C. in 20 mM HEPES, 140 mM NaCl, pH 7.4 with C2, C3, C3(NH3) or C4 at typical concentrations of 0.5-1 μM. The cleavage was followed by SDS-PAGE under reducing conditions. Desirable concentrations of the MASP fragments for further detailed kinetic analysis were chosen to be where half of the protein substrates were hydrolyzed during the first 20 minutes of incubation. The protein substrates C2, C3, C3(NH3) or C4 were then incubated with the selected concentrations of the MASP fragments at 37° C. in 20 mM HEPES, 140 mM NaCl, pH 7.4. Typically 11-13 samples were taken at varying time periods but always within 50 minutes from the beginning of the reaction. Cleavages rates were quantified by measuring the diminution of the cleaved chain visualized by Coomassie stained SDS-PAGs using a GEL DOC 1000 instrument and Molecular Analyst Software for densitometric calculations (Bio-Rad, Hercules, Calif., USA). The reactions were assumed to be of the Michaelis-Menten type. In the case of C3 and C3(NH3) cleavage a further reasonable assumption of KM>>[substrate] was made. The constants KM, kcat and […] were estimated by unbiased non-linear regression methods regressing the data on the following equations: t=([S0]−[S]+KMln([S0]/[S]))/(kcat[E0]) or in the case of C3 and C3(NH3) cleavage on [S]=[S0]exp(−t[E0]kcat/KM).

B1: MASP-1γB: E. coli-expressed, refolded human MASP-1 CCP1-CCP2-SP fragment, Gly298 to Asn699 with N-terminal Ala-Ser-Met-Thr tag (protein)
chain 1: ASMTGNECPELQPPVHGKIEPSQAKYFFKDQVLVSCDTGYKVLKDNVEMDTFQIECLKDGTWSNKIPTCKIVDCRAPGELEHGLITFSTRNNLTTYKSEIKYSCQEPYYKMLNNNTGIYTCSAQGVWMNKVLGRSLPTCLPVCGLPKFSRKLMAR
chain 2: IFNGRPAQKGTTPWIAMLSHLNGQPFCGGSLLGSSWIVTAAHCLHQSLDPEDPTLRDSDLLSPSDFKIILGKHWRLRSDENEQHLGVKHTTLHPQYDPNTFENDVALVELLESPVLNAFVMPICLPEGPQQEGAMVIVSGWGKQFLQRFPETLMEIEIPIVDHSTCQKAYAPLKKKVTRDMICAGEKEGGKDACAGDSGGPMVTLNRERGQWYLVGTVSWGDDCGKKDRYGVYSYIHHNKDWIQRVTGVRN
For the molecule B1, the “autoactivation, in words” value in data set [1] was “fully activated”. In addition, the C2 kcat in data set [2] worked out at 0.10 ± 0.07 s⁻¹.

(Values after patent US8173397B2, “Folded recombinant catalytic fragments of multidomain serine proteases, preparation and uses thereof” (TargetEx Kft., priority 2002, dated 2012).)
